Earlier results as cited in PMC4115291 (Nature communications, 2014).

System: mice

β-Diguetoxin-Dc1a
effect in mice, injected intracerebroventricularly (in words) (1.0 mg/kg intracerebroventricularly): no effect | effect in mice, injected intraperitoneally (in words) (4.1 mg/kg intraperitoneally): no effect
